In data set [1] the target is T1, TPR domain of SGTA (SGTA_TPR) (Homo sapiens, UniProt O43765).
T1 construct: thioredoxin A (TxA) fusion (N, cleaved yes); hexahistidine tag (N, cleaved yes); made in house; host or cells: E. coli BL21(DE3) Rosetta
In words: Size exclusion chromatography (SEC) complex formation with SGTA_TPR. The class given is binding. The note with it: mixed in 1:1 molar ratio. As to the method:
In order to understand molecular details underlying the interaction between SGTA and Rpn13, solution NMR studies were carried out on excised domains of SGTA and Rpn13 guided by earlier mapping studies. Reciprocal chemical shift perturbation (CSP) experiments were performed by titrating unlabelled Rpn13 C-terminal domain (residues 260–407; hereafter described as Rpn13_260-407) into ^15N-labelled TPR domain of SGTA (residues 84–211; hereafter referred to as SGTA_TPR) and vice versa. Assignments of backbone amide resonances were obtained from the BMRB (accession numbers 5709 and 17286, for SGTA_TPR and Rpn13_260-407, respectively). The ^1H-^15N HSQC spectra of both SGTA_TPR and Rpn13_260-407 show binding in a fast exchange regimen (Figs 1A and 2A). […] Binding was further confirmed by size-exclusion chromatography (SEC) and isothermal titration calorimetry (ITC) (Fig. 1C,D). […]
SGTA_TPR and Rpn13 plasmids were transformed into E. coli BL21(DE3) Rosetta cells, with protein expression induced by adding 0.3–0.5 mM isopropyl-β-D-thiogalactopyranoside (IPTG) to bacterial cultures in LB media at OD600 ≈ 0.8, followed by overnight incubation at 18 °C. […] Proteins were concentrated using Vivaspin concentrators (Sartorius Stedin) and sample purity and homogeneity was assessed by SDS-PAGE, mass spectrometry and NMR. […]
For orientation: SEC sorts molecules by how far they enter the pores of the column.

The target of data set [2] is T1, TPR domain of SGTA (SGTA_TPR). In words: Solution NMR CSP titration of unlabelled ligand into 15N-labelled SGTA_TPR. The data set is classed as binding. The note with it: pH 6.0, 25 °C. As to the method:
In order to understand molecular details underlying the interaction between SGTA and Rpn13, solution NMR studies were carried out on excised domains of SGTA and Rpn13 guided by earlier mapping studies. Reciprocal chemical shift perturbation (CSP) experiments were performed by titrating unlabelled Rpn13 C-terminal domain (residues 260–407; hereafter described as Rpn13_260-407) into ^15N-labelled TPR domain of SGTA (residues 84–211; hereafter referred to as SGTA_TPR) and vice versa. Assignments of backbone amide resonances were obtained from the BMRB (accession numbers 5709 and 17286, for SGTA_TPR and Rpn13_260-407, respectively). The ^1H-^15N HSQC spectra of both SGTA_TPR and Rpn13_260-407 show binding in a fast exchange regimen (Figs 1A and 2A). […] Binding was further confirmed by size-exclusion chromatography (SEC) and isothermal titration calorimetry (ITC) (Fig. 1C,D). […] ITC experiments yield a dissociation constant of 16.1 ± 1.4 μM in keeping with the value obtained from NMR.
Protein samples at concentrations between 300 μM and 1 mM were prepared in 10% D2O (Sigma Aldrich), 10 mM potassium phosphate pH 6.0, 100 mM NaCl and 250 μM TCEP buffer (with 10 μM DSS for proton chemical shift referencing). All NMR experiments were acquired in 5 mm NMR tubes at 25 °C on 500 MHz and 700 MHz Bruker Avance spectrometers equipped with cryoprobes and operated by the TopSpin 3.1 software package. All NMR spectra were processed with TopSpin and analysed with CcpNMR Analysis[35]. Proteins used for NMR titrations were dialysed overnight against the same buffer (10 mM potassium phosphate pH 6.0, 100 mM NaCl and 250 μM TCEP) and mixed in different molar ratios, with the concentration of the labelled protein maintained constant. ^1H-^15N HSQC experiments were recorded for each titration point at 25 °C. Chemical shift perturbation (CSP) values were calculated for each amide signal using the following formula: […]
where Δδ1H and Δδ15N are the chemical shift differences for the same amide in its free and bound state (δfree−δbound) and for proton and nitrogen chemical shift values respectively. […]

“Also recorded” adds a separate entry of the source.

This is an account of results in paper PMC5101480 (Scientific Reports, 2016).

T1 sequence (O43765 84-211): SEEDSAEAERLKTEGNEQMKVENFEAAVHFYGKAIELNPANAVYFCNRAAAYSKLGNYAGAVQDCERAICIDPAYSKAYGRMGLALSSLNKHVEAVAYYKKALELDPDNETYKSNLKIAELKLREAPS

B1: Rpn13_260-407: Rpn13 C-terminal domain (residues 260–407), human, expressed in E. coli (protein)
chain: QPIQLSDLQSILATMNVPAGPAGGQQVDLASVLTPEIMAPILANADVQERLLPYLPSGESLPQTADEIQNTLTSPQFQQALGMFSAALASGQLGPLMCQFGLPAEAVEAANKGDVEAFAKAMQNNAKPEQKEGDTKDKKDEEEDMSLD
modifications: left off: thioredoxin A (TxA), N-terminal, cleaved | His6, N-terminal, cleaved
notes: Rpn13 C-terminal domain (residues 260–407), human, expressed in E. coli
Turning to B1, the “SEC complex formation with SGTA_TPR” value in data set [1] is “clearly indicative of a stable complex; also recorded: formation of a stable complex”. Also, the “effect on SGTA_TPR helix-7 residues 203–209 amide signals” value in data set [2] (3-fold molar excess of unlabelled ligand) is recorded as “perturbed”. The “CSP of SGTA_TPR backbone amide signals, result in words” value in data set [2] (unlabelled ligand into 15N-labelled SGTA_TPR, Rpn13_260-407 up to 8 equivalents, Rpn13_260-402 up to 6-fold molar excess) was “Widespread perturbation of backbone amide signals; also recorded: cannot be fitted to a meaningful binding isotherm”.
